The text below walks through data of the RNAGym collection of RNA variant scans (doi:10.7554/elife.80360).

Sequences and labels used below:
B1: Hairpin Ribozyme (parent)
chain: GUCCUCUUUCACGUGCGCGUGAAAGAGAGAAGUGAACCAGAGAAACACACGUUGUGGUAUAUUACCUGGUA

This data set covers variants of B1. Nature of the data set: self-cleavage, relative activity (ratio to wild type); higher = more cleavage; co-transcriptional.
C48A U62A: the self-cleavage came out at 0.14.

As for A22U C37U, the self-cleavage amounted to 0.443.

Turning to U5C C10U, the self-cleavage turned out to be 0.423.

A22U A24G: the self-cleavage was found to be 0.76.

With A36C G69U, the self-cleavage came out at 0.227.

On to C48A A71U, for which the self-cleavage amounted to 0.129.

On to U33C G54A, for which the self-cleavage came out at 0.0427.

In the case of U9A A41U, the self-cleavage amounted to 0.786.

As to C10G U55C, the self-cleavage came to 0.16.

Regarding U9G U33G, the self-cleavage worked out at 0.145.

Take C18U U63C: the self-cleavage came out at 0.18.

Regarding G32C A49C, the self-cleavage amounted to 0.0996.

In the case of U7C C50U, the self-cleavage was 0.523.

Turning to U70C A71U, the self-cleavage turned out to be 1.64.

In the case of A30U G51U, the self-cleavage was found to be 0.193.

On to C16A U60A, for which the self-cleavage amounted to 0.767.

As for A11G A31U, the self-cleavage was determined as 0.0838.

As for U7A G69U, the self-cleavage was found to be 0.271.

As for C4G G68A, the self-cleavage turned out to be 0.084.

Take U20A G68U: the self-cleavage was found to be 0.297.

A30U U70G: the self-cleavage amounted to 0.117.

For the variant U5G G17A, the self-cleavage was 0.362.

Turning to C50U U67G, the self-cleavage stood at 0.181.

In the case of G17U A28C, the self-cleavage worked out at 0.383.

Consider C37A A61G, for which the self-cleavage came out at 0.207.

As for C10A A44U, the self-cleavage turned out to be 0.139.

As for G29U A44U, the self-cleavage was 0.125.

A11C U55G: the self-cleavage was found to be 0.249.

Consider C4U C16G, for which the self-cleavage is 0.243.

With A30C G40U, the self-cleavage was found to be 0.0963.

Regarding C18G U63A, the self-cleavage was 0.147.

For U20C U55A, the self-cleavage was 0.407.

On to C38G C46A, for which the self-cleavage came to 0.148.

Consider G1A A44G, for which the self-cleavage was 0.167.

With G69C A71G, the self-cleavage turned out to be 0.316.

In the case of U67G G69A, the self-cleavage is 0.134.

For the variant U58A C66A, the self-cleavage is 0.18.

On to G40C C48G, for which the self-cleavage was determined as 0.127.

Regarding A39U A71C, the self-cleavage was found to be 0.694.

For A35G U52C, the self-cleavage was found to be 1.29.

As to G15A C18G, the self-cleavage is 0.886.

With G1A U14A, the self-cleavage came to 0.127.

G19C A30G: the self-cleavage was found to be 0.187.

For U9G A59G, the self-cleavage came out at 0.241.

In the case of A22U U70A, the self-cleavage turned out to be 0.768.

For the variant U52C G69U, the self-cleavage worked out at 0.21.

A49C C66A: the self-cleavage came out at 0.28.

On to G19C A31U, for which the self-cleavage was found to be 0.0995.

For the variant G21C A26U, the self-cleavage amounted to 0.57.

For the variant C18U C38A, the self-cleavage turned out to be 0.111.

On to C4U A36U, for which the self-cleavage turned out to be 0.227.

In the case of G1U G32C, the self-cleavage was found to be 0.0843.

U5A G69C: the self-cleavage was 0.0571.

On to C16G G17U, for which the self-cleavage is 1.08.

In the case of U20C C65G, the self-cleavage stood at 0.472.

In the case of U8G G15A, the self-cleavage was determined as 0.897.

For G1A U2C, the self-cleavage came to 0.899.

Take C46U A47U: the self-cleavage is 0.163.

For the variant C37G A71U, the self-cleavage stood at 0.216.

For U5G C12A, the self-cleavage worked out at 0.124.

Take A43C U70G: the self-cleavage came out at 0.12.

On to A11U U20A, for which the self-cleavage worked out at 0.874.

For the variant G32A A64G, the self-cleavage was found to be 0.142.

As to A44U A59C, the self-cleavage was determined as 0.173.

As to U9A G15A, the self-cleavage amounted to 0.704.

As for U67C A71U, the self-cleavage was 0.224.

Take C3G G17C: the self-cleavage was 0.198.

As for G56U A61G, the self-cleavage was determined as 0.178.

Take G56U A61C: the self-cleavage was 0.134.

As to U8C C37U, the self-cleavage stood at 0.347.

As for C46G G68C, the self-cleavage is 0.13.

With C50G A59C, the self-cleavage was found to be 0.221.

On to G15U A47C, for which the self-cleavage is 0.324.

A49G A59G: the self-cleavage worked out at 0.145.

As for G25C A44G, the self-cleavage stood at 0.085.

C10U A71U: the self-cleavage was found to be 0.706.

For the variant C48A C50G, the self-cleavage turned out to be 0.0517.

For the variant A24G A35G, the self-cleavage was determined as 0.797.

With U8A U14C, the self-cleavage came out at 0.845.

For the variant U14C G19A, the self-cleavage came to 0.612.

For G21A U63C, the self-cleavage came out at 0.155.

As for G25U U67G, the self-cleavage stood at 0.18.

Turning to C12U A30G, the self-cleavage worked out at 0.173.

In the case of C4U G15U, the self-cleavage is 0.32.

A28G C48U: the self-cleavage came to 0.276.

Regarding G42C A61G, the self-cleavage is 0.178.

On to A61C C65A, for which the self-cleavage turned out to be 0.165.

For C46U U55G, the self-cleavage came to 0.125.

As to A36U A45C, the self-cleavage was determined as 0.224.

In the case of C10G A23G, the self-cleavage worked out at 0.419.

On to A30U G69C, for which the self-cleavage was determined as 0.0465.

Consider G25U G40C, for which the self-cleavage worked out at 0.131.

G25C U70G: the self-cleavage came out at 0.402.

On to U2C U52C, for which the self-cleavage came to 0.0386.

C38U A71C: the self-cleavage was 0.889.

As for G42U C48U, the self-cleavage came to 0.132.

For the variant C10U A39G, the self-cleavage came out at 0.242.

For G54U G69A, the self-cleavage amounted to 0.122.

In the case of U2A U53C, the self-cleavage was 0.292.

C37G: the self-cleavage was 0.363.

Take G1C U14G: the self-cleavage stood at 0.101.

In the case of C10A A31G, the self-cleavage stood at 0.533.

C3A G27U: the self-cleavage stood at 0.15.

Regarding A31C G51U, the self-cleavage was found to be 0.149.

Turning to G21C A22C, the self-cleavage stood at 0.61.

As to G40A G56C, the self-cleavage came to 0.146.

Consider G54U C65G, for which the self-cleavage was determined as 0.145.

As for U20G A23U, the self-cleavage is 0.712.

C4A A24G: the self-cleavage amounted to 0.143.

For the variant G29C A64U, the self-cleavage was determined as 0.192.

As to U9A A64C, the self-cleavage was 0.0749.

Consider A41U A45U, for which the self-cleavage worked out at 0.0714.

In the case of G42C C46A, the self-cleavage was 0.166.

As to G68A U70A, the self-cleavage turned out to be 0.156.

Turning to G32C A43C, the self-cleavage turned out to be 0.23.

For the variant G25U C48G, the self-cleavage is 0.129.

For the variant C10A G68U, the self-cleavage was found to be 0.201.

For the variant G27U A36G, the self-cleavage amounted to 0.393.

As for C4A G57C, the self-cleavage was determined as 0.156.

Turning to G17U U58G, the self-cleavage is 0.644.

With U8A C65A, the self-cleavage is 0.63.

On to C4G G57U, for which the self-cleavage stood at 0.151.

Regarding G27C U55A, the self-cleavage is 0.156.

Consider G19U A26U, for which the self-cleavage was determined as 0.682.

In the case of U9C U70A, the self-cleavage stood at 0.669.

For A23C C65A, the self-cleavage was determined as 0.818.

For the variant A23C C65U, the self-cleavage stood at 0.282.

For C6U A35G, the self-cleavage worked out at 0.683.

With A28U A43C, the self-cleavage came out at 0.133.

For the variant C46U A71G, the self-cleavage came out at 0.302.

Consider A61U, for which the self-cleavage was 0.213.

For the variant A44U U52C, the self-cleavage amounted to 0.059.

On to A23U, for which the self-cleavage is 0.852.

Take G42C G54U: the self-cleavage amounted to 0.17.

Turning to G13U C66G, the self-cleavage worked out at 0.11.

With C38A A61U, the self-cleavage worked out at 0.064.

Take G15C G21A: the self-cleavage stood at 0.76.

In the case of A22U A36G, the self-cleavage came to 0.849.

Turning to G15U A44G, the self-cleavage was found to be 0.0895.

In the case of U33G A47U, the self-cleavage is 0.105.

Consider A30G C66U, for which the self-cleavage was 0.1.

In the case of A39G G68A, the self-cleavage worked out at 0.0973.

Turning to G21U U52A, the self-cleavage was determined as 0.806.

On to G29C C65U, for which the self-cleavage was 0.135.

Turning to G21U C50A, the self-cleavage turned out to be 0.194.

As to U5G A47C, the self-cleavage turned out to be 0.102.

Regarding A24U G32A, the self-cleavage amounted to 0.15.

As to A36G G56A, the self-cleavage worked out at 0.146.

As to U7A G57A, the self-cleavage was 0.128.

U2G U63C: the self-cleavage was 0.142.

Turning to G13C C66A, the self-cleavage was found to be 0.0627.

For the variant G17A G25A, the self-cleavage amounted to 0.587.

With A22C A47C, the self-cleavage was determined as 0.24.

With G13A A30C, the self-cleavage turned out to be 0.0871.

With A61U U62G, the self-cleavage was found to be 0.0473.

Regarding C3G U55A, the self-cleavage was determined as 0.0814.

Turning to G17C C50G, the self-cleavage amounted to 0.132.

With C16U, the self-cleavage came to 1.04.

As to A44C C46G, the self-cleavage was determined as 0.0995.

G40A U60A: the self-cleavage was 0.271.

On to A35U U63A, for which the self-cleavage was 0.227.

Regarding A28G A36C, the self-cleavage stood at 0.778.

On to C16U G29U, for which the self-cleavage turned out to be 0.0547.

Take U14G A64G: the self-cleavage worked out at 0.407.

Consider U58G U70A, for which the self-cleavage was 0.849.

Turning to G42A A47C, the self-cleavage was found to be 0.219.

Take G21C C38U: the self-cleavage was found to be 0.452.
